Laboratory results as given in publication PMC3683295.

Experiments:
BCL-xLΔC (human) = BCL-xLΔC (human) (UniProt Q07817); test: native gel or EMSA
BCL-xLΔLΔC (human) [1] = target: BCL-xLΔLΔC (human) (UniProt Q07817); test: native gel or EMSA
BCL-xLΔLΔC (human) [2] = target: BCL-xLΔLΔC (human) (UniProt Q07817); test: NMR solution structure
BCL-xLΔLΔC (human) [3] = target: BCL-xLΔLΔC (human) (UniProt Q07817); test: AUC

Substance	stoichiometry N (BCL-xLΔC (human))	stoichiometry N (BCL-xLΔLΔC (human) [1])	stoichiometry N (BCL-xLΔLΔC (human) [2])	stoichiometry N (BCL-xLΔLΔC (human) [3])
BCL-xLΔC (from UniProt Q07817-1 1-211) (domain or fragment)	2			
BCL-xLΔLΔC (from UniProt Q07817-1 1-211) (domain or fragment)		2		
PUMA^BH3 (peptide)	1		1	1
